What was measured:
Type in all cases: physicochemical
[1] = Stability of Subtilisin1 and Subtilisin2 in the liquid peroxide composition of Table 1 (residual protease activity, N,N-dimethylcasein/TNBS); conditions: for % Subtilisin residual activity after 4 weeks: liquid peroxide composition in Table 1 (0.8% H2O2, pH 7.0)
Procedure: (§1) The compositions were prepared as shown in the examples and samples stored in closed vials for storage. Residual activity was measured by comparing activity in a stored sample at the time of taken out of incubation without freezing and comparing activity to a freshly prepared sample without peroxide and dividing activity in the stored sample with activity in the fresh sample.
(§2) Activity analysis is performed by analysing protease activity by hydrolysis of N,N-dimethylcasein to produce a carboxylic acid and a primary amine compounds. The primary amines that are formed react, under alkaline conditions, with tri-nitrobenzenesulfonic acid (TNBS) to form a colored complex. The amount of colored complex that forms over the fixed reaction period at a constant temperature (530 seconds at 40° C.; complex absorbance is measured at 405 nm) is related to the amount of active protease present in the sample. The amount of colored product complex produced is compared to a standard curve based on known protease concentrations to calculate the amount of active protease in the detergent sample. The amount of protease activity at a specific time point is compared to the t=0 activity level to calculate the % active protease remaining.

[2] = Residual hydrogen peroxide after storage, permanganate titration
Procedure: Residual hydrogen peroxide (H2O2) was measured by permanganate titration (reduction of potassium permanganate by hydrogen peroxide in sulfuric acid).

Subtilisin1 [3] = target: T1, Subtilisin1 (Lederbergia lenta, UniProt P29600, M216S); test: Residual activity of Subtilisin1 after storage in peroxide model detergents with or without subtilisin stabilizers (N,N-dimethylcasein/TNBS)
Source text: Chemicals used as buffers and substrates were commercial products of at least reagent grade. Subtilisin1 has the amino acid sequence as shown in SEQ ID NO: 2, which is a subtilisin having a M216 substitution according to the invention. Subtilisin2 has the amino acid sequence as shown in SEQ ID NO: 1, which is a reference subtilisin not covered by the invention. The stock solution of each subtilisin contains 4.4% w/w of active enzyme protein. Stabilizer1: Cbz-Gly-Ala-Tyr-H (C-terminal aldehyde), wherein Cbz is benzyloxycarbonyl; which is a subtilisin stabilizer according to the invention. When used in the examples below, Stabilizer1 was added to the subtilisin stock solution at a concentration of 0.28% w/w. Stabilizer2: Cbz-Gly-Ala-NHCH(CH2C6H4pOH)CH(OH)(OSO3)Na (hydrosulfite adduct of a C-terminal aldehyde) wherein Cbz is benzyloxycarbonyl; which is a subtilisin stabilizer according to the invention. When used in the examples below, Stabilizer2 was added to the subtilisin stock solution at a concentration of 0.35% w/w. Stabilizer3: MeOCO-Val-Ala-Leu-H (C-terminal aldehyde). When used in the examples below, Stabilizer3 was added to the subtilisin stock solution at a concentration of 0.28% w/w. Stabilizer4: 4-formyl-phenyl-boronic acid (4-FPBA); which is a reference protease stabilizer not covered by the invention. When used in the examples below, Stabilizer4 was added to the subtilisin stock solution at a concentration of 3.4% w/w.
as §1, §2
This study examined Subtilisin1 stability in the presence of hydrogen peroxide, with and without subtilisin stabilizers (Stabilizer4 and Stabilizer2) in two different model detergents at pH 7 and 9.

Subtilisin1 [4] = target: T1, Subtilisin1; test: as above; remark: listed apart in the source

B1: Subtilisin1: subtilisin with amino acid sequence SEQ ID NO: 2, having a M216 substitution according to the invention (protein)
chain: AQSVPWGISRVQAPAAHNRGLTGSGVKVAVLDTGISTHPDLNIRGGASFVPGEPSTQDGNGHGTHVAGTIAALNNSIGVLGVAPSAELYAVKVLGASGSGSVSSIAQGLEWAGNNGMHVANLSLGSPSPSATLEQAVNSATSRGVLVVAASGNSGAGSISYPARYANAMAVGATDQNNNRASFSQYGAGLDIVAPGVNVQSTYPGSTYASLNGTSSATPHVAGAAALVKQKNPSWSNVQIRNHLKNTATSLGSTNLYGSGLVNAEAATR
modifications: Variant of SEQ ID NO 1
In the case of B1, the “% Subtilisin residual activity after 4 weeks” value (“% Subtilisin residual activity” for short) ([1]; 22° C.) is reported as 81%, the “% Subtilisin residual activity” value ([1]; 30° C.) is reported as 61% and the “% Subtilisin residual activity” value ([1]; 37° C.) is reported as 46%. For the same molecule, the “stability in the liquid peroxide composition, compared with Subtilisin2” value ([1]; liquid peroxide composition in Table 1, summary of Table 2) was “much better”, the “Residual H2O2 after 4 weeks” value ([2]; liquid peroxide composition in Table 1, 22° C.) was 99.0% and the “Residual H2O2 after 4 weeks” value ([2]; liquid peroxide composition in Table 1, 30° C.) was 98.7%. The “Residual H2O2 after 4 weeks” value ([2]; liquid peroxide composition in Table 1, 37° C.) was 97.8%, the “Residual H2O2 (after storage)” value ([2]; nonionic laundry detergent in Table 7, relative to initially added H2O2 = 1%, 22° C., pH 7) was 95% and the “Residual H2O2 (after storage)” value ([2]; nonionic laundry detergent in Table 7, relative to initially added H2O2 = 1%, 22° C., pH 9) was 95%. For the same molecule, the “Residual H2O2 (after storage)” value ([2]; nonionic laundry detergent in Table 7, relative to initially added H2O2 = 1%, 30° C., pH 7) was 94%, the “Residual H2O2 (after storage)” value ([2]; nonionic laundry detergent in Table 7, relative to initially added H2O2 = 1%, 30° C., pH 9) was 94% and the “Residual H2O2 (after storage)” value ([2]; nonionic laundry detergent in Table 7, relative to initially added H2O2 = 1%, 37° C., pH 7) was 92%. The “Residual H2O2 (after storage)” value ([2]; nonionic laundry detergent in Table 7, relative to initially added H2O2 = 1%, 37° C., pH 9) was 91%, the “Residual H2O2 (after storage)” value ([2]; nonionic pretreatment detergent in Table 4, relative to initially added H2O2 = 1%, 22° C., pH 7) was no less than 100% and the “Residual H2O2 (after storage)” value ([2]; nonionic pretreatment detergent in Table 4, relative to initially added H2O2 = 1%, 22° C., pH 9) was 93%. The “Residual H2O2 (after storage)” value ([2]; nonionic pretreatment detergent in Table 4, relative to initially added H2O2 = 1%, 30° C., pH 7) was no less than 100%, the “Residual H2O2 (after storage)” value ([2]; nonionic pretreatment detergent in Table 4, relative to initially added H2O2 = 1%, 30° C., pH 9) was 91% and the “Residual H2O2 (after storage)” value ([2]; nonionic pretreatment detergent in Table 4, relative to initially added H2O2 = 1%, 37° C., pH 7) was no less than 100%. The “Residual H2O2 (after storage)” value ([2]; nonionic pretreatment detergent in Table 4, relative to initially added H2O2 = 1%, 37° C., pH 9) was 90%, the “Residual H2O2 (after storage)” value ([2]; nonionic/anionic laundry detergent in Table 13, relative to initially added H2O2 = 1%, 22° C., pH 7) was 101% and the “Residual H2O2 (after storage)” value ([2]; nonionic/anionic laundry detergent in Table 13, relative to initially added H2O2 = 1%, 22° C., pH 9) was 95%. The “Residual H2O2 (after storage)” value ([2]; nonionic/anionic laundry detergent in Table 13, relative to initially added H2O2 = 1%, 30° C., pH 7) was 99%, the “Residual H2O2 (after storage)” value ([2]; nonionic/anionic laundry detergent in Table 13, relative to initially added H2O2 = 1%, 30° C., pH 9) was 92% and the “Residual H2O2 (after storage)” value ([2]; nonionic/anionic laundry detergent in Table 13, relative to initially added H2O2 = 1%, 37° C., pH 7) was 101%. The “Residual H2O2 (after storage)” value ([2]; nonionic/anionic laundry detergent in Table 13, relative to initially added H2O2 = 1%, 37° C., pH 9) was 97%, the “Residual H2O2 (after storage)” value ([2]; nonionic/anionic pretreatment detergent in Table 10, relative to initially added H2O2 = 1%, 22° C., pH 7) was 88% and the “Residual H2O2 (after storage)” value ([2]; nonionic/anionic pretreatment detergent in Table 10, relative to initially added H2O2 = 1%, 30° C., pH 7) was 86%. For the same molecule, the “Residual H2O2 (after storage)” value ([2]; nonionic/anionic pretreatment detergent in Table 10, relative to initially added H2O2 = 1%, 37° C., pH 7) was 100%, the “Residual H2O2 (after storage)” value ([2]; nonionic/anionic pretreatment detergent in Table 10, relative to initially added H2O2 = 1%, 37° C., pH 9) was 95% and the “Residual H2O2 (after storage)” value ([2]; nonionic/anionic pretreatment detergent in Table 16, relative to initially added H2O2 = 2%, 22° C., pH 7) was 87%. The “Residual H2O2 (after storage)” value ([2]; nonionic/anionic pretreatment detergent in Table 16, relative to initially added H2O2 = 2%, 30° C., pH 7) was 84%, the “Residual H2O2 (after storage)” value ([2]; nonionic/anionic pretreatment detergent in Table 16, relative to initially added H2O2 = 2%, 37° C., pH 7) was 90% and the “Residual H2O2 (after storage)” value ([2]; nonionic/anionic pretreatment detergent in Table 16, relative to initially added H2O2 = 2%, 37° C., pH 9) was 92%. For the same molecule, the “Residual activity of Subtilisin1 after storage” value (shortened to “Residual activity of Subtilisin1”) (Subtilisin1 [3]; liquid nonionic laundry detergent in Table 7 (1.0% H2O2), 22° C., pH 7) was 63%, the “Residual activity of Subtilisin1” value (Subtilisin1 [3]; liquid nonionic laundry detergent in Table 7 (1.0% H2O2), 22° C., pH 9) was 75% and the “Residual activity of Subtilisin1” value (Subtilisin1 [3]; liquid nonionic laundry detergent in Table 7 (1.0% H2O2), 30° C., pH 7) was 47%. For the same molecule, the “Residual activity of Subtilisin1” value (Subtilisin1 [3]; liquid nonionic laundry detergent in Table 7 (1.0% H2O2), 30° C., pH 9) was 68%, the “Residual activity of Subtilisin1” value (Subtilisin1 [3]; liquid nonionic laundry detergent in Table 7 (1.0% H2O2), 37° C., pH 7) was 30% and the “Residual activity of Subtilisin1” value (Subtilisin1 [3]; liquid nonionic laundry detergent in Table 7 (1.0% H2O2), 37° C., pH 9) was 45%. The “Residual activity of Subtilisin1” value (Subtilisin1 [3]; liquid nonionic pretreatment detergent in Table 4 (1.0% H2O2), 22° C., pH 7) was 85%, the “Residual activity of Subtilisin1” value (Subtilisin1 [3]; liquid nonionic pretreatment detergent in Table 4 (1.0% H2O2), 22° C., pH 9) was 40% and the “Residual activity of Subtilisin1” value (Subtilisin1 [3]; liquid nonionic pretreatment detergent in Table 4 (1.0% H2O2), 30° C., pH 7) was 65%. For the same molecule, the “Residual activity of Subtilisin1” value (Subtilisin1 [3]; liquid nonionic pretreatment detergent in Table 4 (1.0% H2O2), 30° C., pH 9) was 19%, the “Residual activity of Subtilisin1” value (Subtilisin1 [3]; liquid nonionic pretreatment detergent in Table 4 (1.0% H2O2), 37° C., pH 7) was 44% and the “Residual activity of Subtilisin1” value (Subtilisin1 [3]; liquid nonionic pretreatment detergent in Table 4 (1.0% H2O2), 37° C., pH 9) was 12%. The “Residual activity of Subtilisin1” value (Subtilisin1 [3]; liquid nonionic/anionic laundry detergent in Table 13 (1.0% H2O2), 22° C., pH 7) was 84%, the “Residual activity of Subtilisin1” value (Subtilisin1 [3]; liquid nonionic/anionic laundry detergent in Table 13 (1.0% H2O2), 22° C., pH 9) was 63% and the “Residual activity of Subtilisin1” value (Subtilisin1 [3]; liquid nonionic/anionic laundry detergent in Table 13 (1.0% H2O2), 30° C., pH 7) was 62%. For the same molecule, the “Residual activity of Subtilisin1” value (Subtilisin1 [3]; liquid nonionic/anionic laundry detergent in Table 13 (1.0% H2O2), 30° C., pH 9) was 34%, the “Residual activity of Subtilisin1” value (Subtilisin1 [3]; liquid nonionic/anionic laundry detergent in Table 13 (1.0% H2O2), 37° C., pH 7) was 40% and the “Residual activity of Subtilisin1” value (Subtilisin1 [3]; liquid nonionic/anionic laundry detergent in Table 13 (1.0% H2O2), 37° C., pH 9) was 23%. The “Residual activity of Subtilisin1” value (Subtilisin1 [3]; liquid nonionic/anionic pretreatment detergent in Table 10 (1.0% H2O2), 22° C., pH 7) was 79%, the “Residual activity of Subtilisin1” value (Subtilisin1 [3]; liquid nonionic/anionic pretreatment detergent in Table 10 (1.0% H2O2), 22° C., pH 9) was 57% and the “Residual activity of Subtilisin1” value (Subtilisin1 [3]; liquid nonionic/anionic pretreatment detergent in Table 10 (1.0% H2O2), 30° C., pH 7) was 66%. For the same molecule, the “Residual activity of Subtilisin1” value (Subtilisin1 [3]; liquid nonionic/anionic pretreatment detergent in Table 10 (1.0% H2O2), 30° C., pH 9) was 47%, the “Residual activity of Subtilisin1” value (Subtilisin1 [3]; liquid nonionic/anionic pretreatment detergent in Table 10 (1.0% H2O2), 37° C., pH 7) was 52% and the “Residual activity of Subtilisin1” value (Subtilisin1 [3]; liquid nonionic/anionic pretreatment detergent in Table 10 (1.0% H2O2), 37° C., pH 9) was 29%. The “Residual activity of Subtilisin1” value (Subtilisin1 [3]; liquid nonionic/anionic pretreatment detergent in Table 16 (2.0% H2O2), 22° C., pH 7) was 85%, the “Residual activity of Subtilisin1” value (Subtilisin1 [3]; liquid nonionic/anionic pretreatment detergent in Table 16 (2.0% H2O2), 22° C., pH 9) was 30% and the “Residual activity of Subtilisin1” value (Subtilisin1 [3]; liquid nonionic/anionic pretreatment detergent in Table 16 (2.0% H2O2), 30° C., pH 7) was 69%. For the same molecule, the “Residual activity of Subtilisin1” value (Subtilisin1 [3]; liquid nonionic/anionic pretreatment detergent in Table 16 (2.0% H2O2), 30° C., pH 9) was 12%, the “Residual activity of Subtilisin1” value (Subtilisin1 [3]; liquid nonionic/anionic pretreatment detergent in Table 16 (2.0% H2O2), 37° C., pH 7) was 50% and the “Residual activity of Subtilisin1” value (Subtilisin1 [3]; liquid nonionic/anionic pretreatment detergent in Table 16 (2.0% H2O2), 37° C., pH 9) was 5%. The “Residual activity after storage for 2 weeks at 30° C.” value (Subtilisin1 [4]; Subtilisin1 in “Mix Laundry” (Table 19, pH 7.5) no H2O2, no sodium salicylate, no polyDADMAC) was 73%, the “Residual activity after storage for 2 weeks at 30° C.” value (Subtilisin1 [4]; Subtilisin1 in “Mix Laundry” (Table 19, pH 7.5) with 1% H2O2, with sodium salicylate, with polyDADMAC) was 42% and the “Residual activity after storage for 2 weeks at 37° C.” value (Subtilisin1 [4]; Subtilisin1 in “NI pretreat” (Table 19, pH 7.0) with 1% H2O2, with sodium salicylate, with polyDADMAC) was 38%. For the same molecule, the “Residual activity after storage for 2 weeks at 37° C.” value (Subtilisin1 [4]; Subtilisin1 in “NI pretreat” (Table 19, pH 7.0) without H2O2, no sodium salicylate, no polyDADMAC) was 82%.
